Protein stability index data for 72 sequences are collected here from the supplement of paper PMC10567573.

The nature of this data set: protein stability index of a GFP-peptide fusion (GPS, HEK-293T) (PSI 1-6); higher = more stable.
The mark [1] stands for this setting: treatment: DMSO, c terminus: a fixed tail appended.
The mark [2] stands for this setting: treatment: MLN4924 1 uM, 8 h, c terminus: a fixed tail appended.

± gives the standard deviation.
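Note: 24-mer peptide tiles fused after GFP, lentivirally expressed, FACS-sorted into six equal bins by GFP/DsRed ratio, decoded by Illumina sequencing, PSI is the read-weighted mean bin number.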

For the sequence NQRAMDLYKALGAQDLTEAEGWHF [SAT2], the protein stability index came out at 3.28 ± 0.25 under setting [1] and 3.14 ± 0.28 under setting [2].

With NSAAHLFGYRPYDKNISPRENILV [SCD], the protein stability index is 2.22 ± 0.38 under setting [1] and 2.57 ± 0.26 under setting [2].

For NSFRLLFDVVVILTCSLSFLLCAR [MCOLN1], the protein stability index is, setting by setting: under setting [1], 3.21 ± 0.17; under setting [2], 3.24 ± 0.24.

NTGYRLQNNENNISCVERGWSTPP [CFHR2]: the protein stability index reads like this: under setting [1], 3.67 ± 0.19; under setting [2], 3.66 ± 0.22.

In the case of NTLVCNGLQNCVYPWDENHCKEKR [NETO1], the protein stability index under setting [1] came to 4.21 ± 0.25 and the protein stability index under setting [2] is 4.26 ± 0.3.

In the case of NTNPKEVQEMRNKIREQNLQDIKT [ADD1], the protein stability index reads like this: under setting [1], 4.98 ± 0.18; under setting [2], 5.11 ± 0.13.

On to NVGGALYYTTMQTLTKQDTMLKAM [KCTD10], for which the protein stability index reads like this: under setting [1], 2.6 ± 0.35; under setting [2], 2.38 ± 0.54.

NVKTLKDGKPFPELVLEQQLDREA [PCDHGC5]: the protein stability index is, setting by setting: under setting [1], 5.07 ± 0.33; under setting [2], 5.02 ± 0.13.

On to NVNSNLITWNRVVLLHGPPGTGKT [TRIP13], for which the protein stability index was determined as 2.45 ± 0.21 under setting [1] and 2.53 ± 0.14 under setting [2].

In the case of NWKETLVFPPEVPISEKAKDLILR [STK38L], the protein stability index stood at 2.81 ± 0.43 under setting [1] and 3.28 ± 0.29 under setting [2].

Sequence NWWIRGILTLTMISLFFLIIYMGS [CDS1] yielded a protein stability index under setting [1] of 2.54 ± 0.16 and a protein stability index under setting [2] of 2.55 ± 0.35.

Consider NYIGTKNVIETCKEAGVQKLILTS [NSDHL], for which the protein stability index turned out to be 2.5 ± 0.23 under setting [1] and 2.84 ± 0.44 under setting [2].

For NYLVRLSFHNLKFDCSTANKIFLR [ZNF277], the protein stability index was determined as 2.46 ± 0.4 under setting [1] and 2.55 ± 0.25 under setting [2].

As for NYMNAAMVHINRALKLIIRLFLVE [RTN3], the protein stability index amounted to 2.24 ± 0.21 under setting [1] and 2.27 ± 0.26 under setting [2].

Take NYSYRGYGALSSNLQPPASLQTGN [NOL4L]: the protein stability index by setting is: under setting [1], 3.64 ± 0.2; under setting [2], 3.8 ± 0.25.

In the case of PACHSFNRAIHKKAKGTEAEEEY [FBXO34], the protein stability index is, setting by setting: (treatment: DMSO, c terminus: native) 5.25 ± 0.49; (treatment: MLN4924 1 uM, 8 h, c terminus: native) 5.41 ± 0.34.

PAVTPDPWGVQGGQESEVPYKREE [PKD2L1] displayed a protein stability index under setting [1] of 5.24 ± 0.33 and a protein stability index under setting [2] of 5.49 ± 0.16.

Turning to PCPLGEPKTQACSGSESPSDSGKD [MYCL], the protein stability index reads like this: under setting [1], 5.41 ± 0.24; under setting [2], 5.41 ± 0.17.

In the case of PDDRLTCSQLLESSYFDSFQEAQI [CDKL4], the protein stability index by setting is: under setting [1], 3.91 ± 0.43; under setting [2], 4.08 ± 0.12.

With PDLRSLFSRAGISEAQLTDAETSK [WAS], the protein stability index came out at 5.03 ± 0.28 under setting [1] and 5 ± 0.27 under setting [2].

Take PDVENEVKRLLRSDAEAVSTRWEV [TAF7L]: the protein stability index reads like this: under setting [1], 3.24 ± 0.63; under setting [2], 3.76 ± 0.65.

Take PELPEGHLEDWLEKRAKRLSSAPS [ZMAT5]: the protein stability index came to 4.32 ± 0.12 under setting [1] and 5.14 ± 0.14 under setting [2].

With PENILLDRDGHIKLTDFGFAKKLV [PRKX], the protein stability index is, setting by setting: under setting [1], 2.9 ± 0.17; under setting [2], 3.08 ± 0.072.

For the sequence PEPVYFHCAAVTPAGCMYIHGGVV [KLHDC10], the protein stability index by setting is: under setting [1], 2.53 ± 0.56; under setting [2], 2.85 ± 0.71.

With PEQVQNEIKSMKKRMSELCIDFNK [NLN], the protein stability index is, setting by setting: under setting [1], 4.11 ± 0.44; under setting [2], 4.23 ± 0.52.

Take PERSDLTLYLIVALATVSLLSLVT [PCDHGC5]: the protein stability index runs as follows: under setting [1], 2.02 ± 0.44; under setting [2], 2.27 ± 0.56.

For PFFVLNSDVICDFPFQAMVQFHRH [GMPPB], the protein stability index under setting [1] was found to be 2.4 ± 0.67 and the protein stability index under setting [2] was determined as 2.34 ± 0.29.

PGAPGMPPGIPPLMPGVPPLMPGM [ZNF207]: the protein stability index under setting [1] amounted to 3.71 ± 0.13 and the protein stability index under setting [2] was 3.62 ± 0.24.

In the case of PGYLVGRNNANGVDLNRNFPDLNT [CPN1], the protein stability index reads like this: under setting [1], 3.73 ± 0.36; under setting [2], 3.67 ± 0.48.

For the sequence PHKTFRKLRLFDTPHTPKSLLSKA [WEE1], the protein stability index reads like this: under setting [1], 2.82 ± 0.35; under setting [2], 2.98 ± 0.41.

On to PHSDQRLRPQRTKQYVLLSILLCL [TMEM106C], for which the protein stability index came out at 2.34 ± 0.48 under setting [1] and 2.11 ± 0.17 under setting [2].

For PKGGQVQIVTKKIDLSHVTSKCGS [MAP2], the protein stability index worked out at 3.92 ± 0.18 under setting [1] and 3.91 ± 0.37 under setting [2].

Consider PKKISDLDHCANRVLMYGSELDAD [TPH1], for which the protein stability index runs as follows: under setting [1], 4.58 ± 0.083; under setting [2], 4.47 ± 0.088.

Take PLFSNWWIQVTSLRIFVWLLLLYF [PHTF1]: the protein stability index runs as follows: under setting [1], 2.21 ± 0.22; under setting [2], 2.5 ± 0.49.

With PLRADHMVKEPVEDTDPSTLSFNM [EDARADD], the protein stability index came out at 5.1 ± 0.083 under setting [1] and 4.86 ± 0.46 under setting [2].

In the case of PMLETASKLLLSGTADGADLRTVD [ANKRD17], the protein stability index under setting [1] came out at 4.68 ± 0.077 and the protein stability index under setting [2] was found to be 4.67 ± 0.22.

As to PMVLKGKIRPDSSRPELLQPLNFV [GLT8D2], the protein stability index under setting [1] turned out to be 2.83 ± 0.2 and the protein stability index under setting [2] worked out at 3 ± 0.3.

Consider PNKDMVVQLIDDFKISGMNGIHVC [SRPK2], for which the protein stability index reads like this: under setting [1], 2.38 ± 0.27; under setting [2], 2.35 ± 0.25.

For PNSTKNQSLPKASPVTTSPTAATT [LCOR], the protein stability index runs as follows: under setting [1], 4.91 ± 0.23; under setting [2], 5.03 ± 0.26.

On to PPELNYGATGECQNFLDPGYPLPK [ZNF449], for which the protein stability index reads like this: under setting [1], 4.61 ± 0.2; under setting [2], 4.67 ± 0.13.

Consider PPRGPLGQGAMFRLPTDSHFPYDL [NEUROD6], for which the protein stability index is, setting by setting: under setting [1], 3.46 ± 0.18; under setting [2], 3.59 ± 0.38.

Regarding PPRRGVSGDRDENSFSLNSSISSS [MAP2], the protein stability index is 4.84 ± 0.14 under setting [1] and 4.74 ± 0.24 under setting [2].

Sequence PPYLPLAVPEDLADRLVRVHGDPA [FUT8] had a protein stability index under setting [1] of 4.22 ± 0.12 and a protein stability index under setting [2] of 4.31 ± 0.28.

Regarding PQRYPACAQMLPPNLSPHAPWNYH [TRAF3IP2], the protein stability index by setting is: under setting [1], 2.31 ± 0.37; under setting [2], 2.11 ± 0.25.

PQTPAAPPATLGEGSADTEDRKLP [EHMT1]: the protein stability index is, setting by setting: under setting [1], 5.44 ± 0.28; under setting [2], 5.36 ± 0.35.

Regarding PRKTAAPVNALVSHLLVVEPEKLY [ESRRA], the protein stability index is 2.83 ± 0.22 under setting [1] and 2.5 ± 0.18 under setting [2].

Turning to PRLWTTCRDGEVLLRLSKHGPGHE [ACSBG2], the protein stability index is, setting by setting: under setting [1], 2.4 ± 0.15; under setting [2], 2.21 ± 0.17.

As for PSDLDLVMSEGLGMRYAFIGPLET [CRYL1], the protein stability index under setting [1] amounted to 2.46 ± 0.63 and the protein stability index under setting [2] was determined as 2.6 ± 0.39.

Consider PSRAPPSTQEPQSPREGEELKPED [GNAS], for which the protein stability index turned out to be 5.5 ± 0.33 under setting [1] and 5.5 ± 0.32 under setting [2].

With PSSQSSSGGGRDSSSSILRWLPEK [ELOA2], the protein stability index was 4.15 ± 0.12 under setting [1] and 4.25 ± 0.1 under setting [2].

On to PSTICFGQGAARGFKSNKKKTKQC [ZNF511], for which the protein stability index reads like this: under setting [1], 4.14 ± 0.83; under setting [2], 3.84 ± 0.068.

Consider PTLKKCEDVARPTQRLWDFTQSGP [GALNT9], for which the protein stability index by setting is: under setting [1], 3.69 ± 0.24; under setting [2], 4 ± 0.17.

On to PTPSSPLPSVPVSVPASDPRSCSS [PLEKHN1], for which the protein stability index runs as follows: under setting [1], 5.15 ± 0.2; under setting [2], 5.14 ± 0.26.

For PTQKALYNDVMQENYETVISLALF [ZNF75A], the protein stability index runs as follows: under setting [1], 2.57 ± 0.45; under setting [2], 2.47 ± 0.37.

For the sequence PTTRNYPELNNNQYNRSSNSNGGN [CDC14A], the protein stability index came out at 4.654 ± 0.022 under setting [1] and 4.79 ± 0.1 under setting [2].

Regarding PTVKDLIGGFTALHYAAMHGRARI [ASB7], the protein stability index runs as follows: under setting [1], 2.56 ± 0.47; under setting [2], 2.4 ± 0.43.

PVACGSVLSEGSPLTEQEESSPSH [SRPK2]: the protein stability index was 5.52 ± 0.17 under setting [1] and 5.51 ± 0.17 under setting [2].

Consider PVLRFDALWQVLARDCFATGRHYW [TRIM14], for which the protein stability index by setting is: under setting [1], 3.5 ± 0.53; under setting [2], 3.21 ± 0.88.

As for PVQASQLEEEFDSDSGLSLDSSHS [NFE2L1], the protein stability index is, setting by setting: under setting [1], 5.51 ± 0.11; under setting [2], 5.46 ± 0.22.

For PYIQLPSHSNITGIVEVILGETKA [TRIB1], the protein stability index came to 2.63 ± 0.48 under setting [1] and 2.67 ± 0.52 under setting [2].

Consider PYLLGPDKNLTEREVFNEIYPVWT [SLC19A2], for which the protein stability index reads like this: under setting [1], 2.35 ± 0.24; under setting [2], 2.71 ± 0.26.

Take QAFLDELESSDLPVALLLAQHKDR [MNAT1]: the protein stability index under setting [1] amounted to 3.53 ± 0.13 and the protein stability index under setting [2] worked out at 3.49 ± 0.21.

QALMLPPGSFWGLCQVAQEALASA [VENTX] displayed a protein stability index under setting [1] of 2.04 ± 0.25 and a protein stability index under setting [2] of 2.18 ± 0.42.

QAQGQLRELLDRAMREAIQSYPSQ [SOAT2] had a protein stability index under setting [1] of 3.01 ± 0.31 and a protein stability index under setting [2] of 3.11 ± 0.31.

As to QAQKCYRDLALVSRDGMNIVLNKI [INTS3], the protein stability index worked out at 2.29 ± 0.23 under setting [1] and 2.61 ± 0.44 under setting [2].

QCAVLIYTSGTTGIPKGVMLSHDN [ACSBG2]: the protein stability index under setting [1] was 2.65 ± 0.51 and the protein stability index under setting [2] amounted to 2.58 ± 0.72.

With QDFAKDLLKTLYNSIKNEKLEWAI [PSD2], the protein stability index amounted to 2.32 ± 0.47 under setting [1] and 2.23 ± 0.25 under setting [2].

Turning to QEAVPLGLGLEDADWTQGLPWRFE [TEX19], the protein stability index by setting is: under setting [1], 3.34 ± 0.21; under setting [2], 3.34 ± 0.3.

As for QEITEQQDIAQEISEAFSQRVGFG [CHMP4C], the protein stability index is, setting by setting: under setting [1], 5.02 ± 0.14; under setting [2], 4.77 ± 0.38.

For QELCEGLLEESDGEGEPGQGEGPE [NOP53], the protein stability index is, setting by setting: under setting [1], 5.6 ± 0.14; under setting [2], 5.56 ± 0.11.

Regarding QEMVVSSLVIGALLASLTGGVLID [SLC2A12], the protein stability index under setting [1] amounted to 3.61 ± 0.39 and the protein stability index under setting [2] was found to be 3.45 ± 0.73.

The sequence QENYLEYRQVPGSDPARYEFLWGP [MAGEA10] yielded a protein stability index under setting [1] of 3.28 ± 0.27 and a protein stability index under setting [2] of 3.54 ± 0.32.
